This experiment deals with T1, recombinant insulin receptor ecto-domain protein rIR (R&D Systems #1444-IR) (UniProt P06213-2 28-944, limits assumed).
T1 construct: extracellular domain; Bought protein; also called soluble IR ectodomain
Kind of experiment: competitive BMEC binding assay: scFv-Fc pre-incubated with soluble ectodomain, then cell surface binding on BMECs.

T1 sequence (P06213 other isoform, or with tags, fused parts or gaps limits assumed): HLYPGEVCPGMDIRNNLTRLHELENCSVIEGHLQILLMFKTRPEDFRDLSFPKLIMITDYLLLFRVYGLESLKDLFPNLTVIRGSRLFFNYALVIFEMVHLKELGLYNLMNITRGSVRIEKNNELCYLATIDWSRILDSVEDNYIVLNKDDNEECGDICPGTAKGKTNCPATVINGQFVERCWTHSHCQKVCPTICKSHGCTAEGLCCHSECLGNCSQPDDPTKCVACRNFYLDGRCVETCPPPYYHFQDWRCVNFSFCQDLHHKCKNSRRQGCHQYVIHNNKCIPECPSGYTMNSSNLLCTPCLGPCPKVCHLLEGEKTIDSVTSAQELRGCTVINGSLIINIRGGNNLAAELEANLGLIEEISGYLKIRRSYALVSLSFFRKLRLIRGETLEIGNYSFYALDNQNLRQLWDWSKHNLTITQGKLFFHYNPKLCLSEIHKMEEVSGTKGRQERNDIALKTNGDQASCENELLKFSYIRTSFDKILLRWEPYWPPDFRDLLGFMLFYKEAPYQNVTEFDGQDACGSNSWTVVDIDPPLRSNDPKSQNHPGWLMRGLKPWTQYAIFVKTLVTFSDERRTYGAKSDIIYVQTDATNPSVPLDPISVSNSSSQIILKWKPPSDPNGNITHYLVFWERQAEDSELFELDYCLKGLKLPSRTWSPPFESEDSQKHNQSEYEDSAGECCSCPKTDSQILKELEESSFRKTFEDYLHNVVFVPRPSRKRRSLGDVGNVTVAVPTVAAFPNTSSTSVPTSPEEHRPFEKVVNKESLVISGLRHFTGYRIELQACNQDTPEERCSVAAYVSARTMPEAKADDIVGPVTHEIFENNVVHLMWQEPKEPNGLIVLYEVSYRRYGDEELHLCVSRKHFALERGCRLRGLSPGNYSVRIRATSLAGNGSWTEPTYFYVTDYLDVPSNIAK

B1: 17-scFv-Fc (Fc fusion)
chain: QVQLLQSAGALVQPGGSLRLSCAASGFTFSSSTMHWVRQAPGKGLEWVAVVSYDGNTQYYADSVKGRFTISRDNSKNTLSLQMNNLRAEDTAVYYCAGLWGSLLGYFQHWGQGTLVTVSSGGGGSGGGGSGGGGSDIQMTQSPSFLSASVGDRVTITCRASQGVNNYLAWYQQKPGKAPKLLIYAASTLQSGVPSSFSGSGSGTEFTLTISSLQPEDFATYFCQQAHSFPPTFGGGTKLEIKR
notes: scFv linked directly to rabbit IgG Fc, made in HEK293F cells; dimer; also called clone 17 scFv-Fc; not shown: rabbit IgG Fc region (pIRES-rabbit Fc vector)
With B1, the binding result was “no binding”.

B2: 46.1-scFv-Fc (Fc fusion)
chain: QVQLQESGGGLAQPGGSLRLSCAASGFTFSGYWMHWVRQAPGKGLVWVSRIKGDGTDIEYADSVKGRFTISRDNAKNTLYLQMNSLRAEDTAVYYCARDLRQTHWFDSWGQGTLVTVSSGGGGSGGGGSGGGGSQSALTQDPAVSVALGQTVRITCQGDSLRSYYASWYQQKPGQAPVLVMYGENSRPSGIPDRFSGSNSGNTASLIITGAQAEDEADYYCSSRDTSGNHVLFGGGTKLTVLG
notes: scFv linked directly to rabbit IgG Fc, made in HEK293F cells; dimer; also called clone 46.1 scFv-Fc; not shown: rabbit IgG Fc region (pIRES-rabbit Fc vector)
For B2, the binding result is on record as “no binding”.
